Legend:
[1] = molecular target: T1, GST-NP.d3 (NPAC residues 152-252, linker region)
T1 chain: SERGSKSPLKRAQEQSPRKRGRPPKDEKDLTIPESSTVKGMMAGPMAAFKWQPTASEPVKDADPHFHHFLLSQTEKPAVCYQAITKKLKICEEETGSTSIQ

[2] = molecular target: T2, GST-NP.d2 (NPAC residues 1-252)
T2 chain: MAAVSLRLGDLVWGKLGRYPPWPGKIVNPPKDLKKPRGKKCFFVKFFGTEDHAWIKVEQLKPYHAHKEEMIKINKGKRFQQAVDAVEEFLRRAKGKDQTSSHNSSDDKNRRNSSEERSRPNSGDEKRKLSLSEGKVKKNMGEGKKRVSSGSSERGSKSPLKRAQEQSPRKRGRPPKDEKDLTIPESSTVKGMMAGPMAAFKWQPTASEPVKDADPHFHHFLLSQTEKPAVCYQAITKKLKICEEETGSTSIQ

[3] = molecular target: T3, GST-NP.d4 (NPAC residues 152-553)
T3 chain: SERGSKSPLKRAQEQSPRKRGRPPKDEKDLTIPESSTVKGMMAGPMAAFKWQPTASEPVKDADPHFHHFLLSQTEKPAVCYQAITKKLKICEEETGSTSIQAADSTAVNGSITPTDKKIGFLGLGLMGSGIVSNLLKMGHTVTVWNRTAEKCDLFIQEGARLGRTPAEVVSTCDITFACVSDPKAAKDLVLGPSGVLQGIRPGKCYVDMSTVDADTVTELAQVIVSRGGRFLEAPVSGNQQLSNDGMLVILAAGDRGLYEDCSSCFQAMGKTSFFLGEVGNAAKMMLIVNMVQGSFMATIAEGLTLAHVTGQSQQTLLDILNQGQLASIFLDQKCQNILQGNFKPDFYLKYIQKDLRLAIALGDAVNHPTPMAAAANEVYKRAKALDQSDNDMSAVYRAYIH

[4] = molecular target: T4, GST-NP.d1 (NPAC residues 1-150, PWWP domain)
T4 chain: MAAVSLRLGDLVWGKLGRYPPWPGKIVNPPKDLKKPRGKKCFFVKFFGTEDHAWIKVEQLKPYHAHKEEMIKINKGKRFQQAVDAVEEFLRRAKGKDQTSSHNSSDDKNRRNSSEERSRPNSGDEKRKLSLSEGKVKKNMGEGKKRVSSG

[5] = molecular target: T5, GST-NP.d8 (NPAC residues 188-252)
T5 chain: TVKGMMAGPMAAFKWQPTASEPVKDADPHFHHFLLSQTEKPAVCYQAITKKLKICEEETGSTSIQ

[6] = molecular target: T6, GST-NP.d5 (NPAC residues 262-553, dehydrogenase domain)
T6 chain: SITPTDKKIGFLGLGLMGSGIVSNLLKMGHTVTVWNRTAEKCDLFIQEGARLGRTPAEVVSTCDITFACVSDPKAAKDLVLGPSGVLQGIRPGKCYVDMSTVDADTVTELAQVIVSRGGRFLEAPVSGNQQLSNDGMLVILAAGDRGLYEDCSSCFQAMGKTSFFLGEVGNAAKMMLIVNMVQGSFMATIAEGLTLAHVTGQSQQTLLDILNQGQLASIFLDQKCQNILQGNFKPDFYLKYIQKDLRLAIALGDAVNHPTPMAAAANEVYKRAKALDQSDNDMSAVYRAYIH

[7] = molecular target: T7, GST-NP.d7 (NPAC residues 152-186, containing the AT hook motif)
T7 chain: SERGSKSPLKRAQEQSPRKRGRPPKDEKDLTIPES

[8] = molecular target: T8, GST-NP.d6 (NPAC with deletion of the linker region, residues 152-252)
T8 chain: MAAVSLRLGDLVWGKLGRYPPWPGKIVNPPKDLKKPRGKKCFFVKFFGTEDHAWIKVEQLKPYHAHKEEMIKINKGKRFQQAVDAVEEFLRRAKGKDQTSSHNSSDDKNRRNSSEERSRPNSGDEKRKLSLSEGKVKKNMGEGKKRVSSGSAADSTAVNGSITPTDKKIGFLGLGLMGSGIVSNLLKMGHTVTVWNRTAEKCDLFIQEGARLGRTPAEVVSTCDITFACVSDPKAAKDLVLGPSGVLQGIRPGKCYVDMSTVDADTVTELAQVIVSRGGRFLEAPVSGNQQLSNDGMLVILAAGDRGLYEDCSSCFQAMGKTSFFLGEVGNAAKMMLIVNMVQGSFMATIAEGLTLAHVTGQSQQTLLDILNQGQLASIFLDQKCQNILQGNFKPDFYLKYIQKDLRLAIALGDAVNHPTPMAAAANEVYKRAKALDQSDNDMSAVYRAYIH

[9] = molecular target: T9, GST-NP.d9 (NP.d3, NPAC residues 152-252, with deletion of amino acids 214-222)
T9 chain: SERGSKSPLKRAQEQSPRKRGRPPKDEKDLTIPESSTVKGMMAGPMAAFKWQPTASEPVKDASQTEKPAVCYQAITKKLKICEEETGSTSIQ

B1: Recombinant 6x his tagged full-length LSD2 (protein)
chain: HHHHHHMATPRGRTKKKASFDHSPDSLPLRSSGRQAKKKATETTDEDEDGGSEKKYRKCEKAGCTATCPVCFASASERCAKNGYTSRWYHLSCGEHFCNECFDHYYRSHKDGYDKYTTWKKIWTSNGKTEPSPKAFMADQQLPYWVQCTKPECRKWRQLTKEIQLTPQIAKTYRCGMKPNTAIKPETSDHCSLPEDLRVLEVSNHWWYSMLILPPLLKDSVAAPLLSAYYPDCVGMSPSCTSTNRAAATGNASPGKLEHSKAALSVHVPGMNRYFQPFYQPNECGKALCVRPDVMELDELYEFPEYSRDPTMYLALRNLILALWYTNCKEALTPQKCIPHIIVRGLVRIRCVQEVERILYFMTRKGLINTGVLSVGADQYLLPKDYHNKSVIIIGAGPAGLAAARQLHNFGIKVTVLEAKDRIGGRVWDDKSFKGVTVGRGAQIVNGCINNPVALMCEQLGISMHKFGERCDLIQEGGRITDPTIDKRMDFHFNALLDVVSEWRKDKTQLQDVPLGEKIEEIYKAFIKESGIQFSELEGQVLQFHLSNLEYACGSNLHQVSARSWDHNEFFAQFAGDHTLLTPGYSVIIEKLAEGLDIQLKSPVQCIDYSGDEVQVTTTDGTGYSAQKVLVTVPLALLQKGAIQFNPPLSEKKMKAINSLGAGIIEKIALQFPYRFWDSKVQGADFFGHVPPSASKRGLFAVFYDMDPQKKHSVLMSVIAGEAVASVRTLDDKQVLQQCMATLRELFKEQEVPDPTKYFVTRWSTDPWIQMAYSFVKTGGSGEAYDIIAEDIQGTVFFAGEATNRHFPQTVTGAYLSGVREASKIAAF
[1]
  LSD2 activity on nucleosome substrates (nucleosome demethylation assay, immunoblot): significantly enhance LSD2 demethylase activity
[2]
  LSD2 activity on nucleosome substrates (nucleosome demethylation assay, immunoblot): significantly enhance LSD2 demethylase activity
[3]
  LSD2 activity on nucleosome substrates (nucleosome demethylation assay, immunoblot): significantly enhance LSD2 demethylase activity
[4]
  LSD2 activity on nucleosome substrates (nucleosome demethylation assay, immunoblot): Neither the PWWP domain (SEQ ID NO: 63) (NP.d1, residues 1-150) nor the dehydrogenase domain (NP.d5, residues 262-553) stimulated LSD2
[5]
  LSD2 histone demethylase activity on nucleosomal substrates: NP.d8, but not NP.d7 or NP.d9, significantly enhances LSD2 histone demethylase activity on nucleosomal substrates
[6]
  LSD2 activity on nucleosome substrates (nucleosome demethylation assay, immunoblot): Neither the PWWP domain (SEQ ID NO: 63) (NP.d1, residues 1-150) nor the dehydrogenase domain (NP.d5, residues 262-553) stimulated LSD2
[7]
  LSD2 histone demethylase activity on nucleosomal substrates: NP.d8, but not NP.d7 or NP.d9, significantly enhances LSD2 histone demethylase activity on nucleosomal substrates
[8]
  LSD2 activity on nucleosome substrates (nucleosome demethylation assay, immunoblot): deletion of the linker region (residues 152-252) abolishes cofactor activity (NP.d6, lane 10)
[9]
  LSD2 histone demethylase activity on nucleosomal substrates: NP.d8, but not NP.d7 or NP.d9, significantly enhances LSD2 histone demethylase activity on nucleosomal substrates

From patent publication US20150329644
